Reference: patent US20130336988A1, “METHODS FOR TREATING EARLY STAGE OR MILD NEUROLOGICAL DISORDERS” (NEW YORK UNIVERSITY, priority 2010, published 2013)

B1: proBDNF: murine proBDNF collected from supernatants of transfected 293 cells (protein)
chain: APMKEVNVHGQGNLAYPGVRTHGTLESVNGPRAGSRGLTTTSLADTFEHVIEELLDEDQKVRPNEENHKDADLYTSRVMLSSQVPLEPPLLFLLEEYKNYLDAANMSMRVRRHSDPARRGELSVCDSISEWVTAADKKTAVDMSGGTVTVLEKVPVSKGQLKQYFYETKCNPMGYTKEGCRGIDKRHWNSQCRTTQSYVRALTMDSKKRIGWRFIRIDTSCVCTLTIKRGR

Tests used:
p75^NTR/SorCS2 and Trio = biological target: T1, p75^NTR/SorCS2 and Trio (Homo sapiens, UniProt P08138+Q96PQ0); test: Co-immunoprecipitation of Trio with p75NTR/SorCS2 after proNT treatment of HT1080 cells; type: cell-based; details: HT1080 cells expressing p75NTR and SorCS2; 20 min incubation; IP anti-p75NTR, Western blot
T1 construct: HA; expressed in transfected cells; host or cells: HT-1080 cells
Experimental: HT-1080 cells were transfected with HA-p75^NTR and myc-SorCS2. 24-48 hours later, cells were treated with 25 ng/ml proNGF for 20 min where indicated. Cells were lysed with lysis buffer (50 mM Tris-HCl pH 8.0, 140 mM NaCl, 2 mM EDTA, 1% NP40, 10% glycerol) supplemented with protease inhibitors and complexes were immunoprecipitated using anti-HA agarose. To map the Trio domain required for the interaction with p75^NTR, 293T cells were transfected with HA-p75^NTR and constructs of the individual Trio domains. After 24 hours, cells were lysed as described above, and complexes were immunoprecipitated using anti-HA agarose or anti-Myc agarose as indicated.

[1] = test system: Cortical neurons expressing p75^NTR; test: Growth cone collapse in cortical neurons; type: cell-based, mouse; details: cortical neurons expressing p75NTR (not shown)
Experimental: Primary hippocampal and cortical neurons were isolated from E15 C57BL/6 mouse embryos as previously described (PEREIRA, D. B. et al., Journal of Neuroscience 27:4859-4869 (2007)). Briefly, neurons were dissociated by incubation with 0.05% trypsin at 37° C. for 8 min followed by trituration with fire-polished glass Pasteur pipettes. Cells were plated on poly-D-lysine coated dishes and grown in Neurobasal medium containing B27, 0.5 mM glutamine (all Invitrogen) and 10 μM 5-fluorodeoxyuridine. Hippocampal neurons were transfected at DIV2 using Lipofectamine2000 (Invitrogen). For coverslips in a 24-well plate, 0.5 μg plasmid were mixed with 0.5 μl Lipofectamine2000, and for glass bottom dishes, 1.5 μg plasmid were mixed with 1.5 μl Lipofectamine2000. The complexes were added to the cells for 30-45 min, and then neurons were placed back into preconditioned media until analysis the following day. HT1080 cells were grown in DMEM/10% fetal bovine serum (both Invitrogen) and transfected using the AMAXA nucleofector (Lonza) according to manufacturer's instructions. 293FT cells were grown in DMEM/10% fetal bovine serum and transfected with Lipofectamine2000 according to manufacturer's instructions.

sortilin = biological target: T2, sortilin (Homo sapiens, UniProt Q99523); test: Co-immunoprecipitation of proNT with sortilin in transfected 293 cells; type: binding; details: 293 cells co-transfected with proNT and myc-sortilin; IP-Western blot
T2 construct: expressed in transfected cells; host or cells: HEK 293 cells (proBDNF) / 293T cells (proNGF)
T2 sequence (Q99523 78-831): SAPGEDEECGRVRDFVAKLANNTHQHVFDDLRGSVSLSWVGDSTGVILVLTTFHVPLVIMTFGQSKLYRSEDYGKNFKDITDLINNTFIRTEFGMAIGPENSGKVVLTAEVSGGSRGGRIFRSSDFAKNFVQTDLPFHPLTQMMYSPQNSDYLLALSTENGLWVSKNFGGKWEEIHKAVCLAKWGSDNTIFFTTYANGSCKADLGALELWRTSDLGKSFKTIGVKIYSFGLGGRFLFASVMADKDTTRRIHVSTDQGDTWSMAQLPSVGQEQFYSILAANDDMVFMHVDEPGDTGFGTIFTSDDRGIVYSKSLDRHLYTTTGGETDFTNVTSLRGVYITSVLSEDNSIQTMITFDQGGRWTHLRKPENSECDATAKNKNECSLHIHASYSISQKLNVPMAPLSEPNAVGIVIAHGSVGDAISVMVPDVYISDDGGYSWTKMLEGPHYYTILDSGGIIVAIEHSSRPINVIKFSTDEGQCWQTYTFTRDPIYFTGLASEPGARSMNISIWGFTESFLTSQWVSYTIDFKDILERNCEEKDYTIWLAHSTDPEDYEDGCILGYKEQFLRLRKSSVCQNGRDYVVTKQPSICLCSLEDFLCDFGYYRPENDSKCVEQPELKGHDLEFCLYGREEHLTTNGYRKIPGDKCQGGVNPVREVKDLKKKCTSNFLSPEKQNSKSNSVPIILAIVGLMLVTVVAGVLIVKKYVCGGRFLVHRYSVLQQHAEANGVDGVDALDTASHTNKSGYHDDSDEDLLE
Experimental: FIG. 2A-G. ProNTs induce growth cone collapse. (A, B) DIV3 hippocampal neurons transfected with LifeAct-RFP were imaged by time-lapse microscopy before (top panel) and starting approximately 2 min after (bottom panel) treatment with proBDNF (A) or proNGF (B). Actin dynamics stalled upon proNT treatment and subsequently the growth cone collapsed. Time is indicated in (min:sec). Scale bars, 10 μm. (C, D) DIV3 hippocampal cultures were fixed and stained for p75^NTR (C) and SorCS2 (D). Arrows highlight growth cones. Scale bars, 20 μm. (E) Brain sections from 6-week old C57/BL6 mice were stained for SorCS2. DG, dentate gyrus. Arrows highlight expression in dentate granule dendrites. Scale bar, 200 μm. (F) Both sortilin and SorCS2 interact with proBDNF. HEK 293 cells were transfected with proBDNF-HA and myc-sortilin or mycSorCS2, lysates were immunoprecipitated with anti-HA agarose and analyzed by Western blot with indicated antibodies. (G) IP-WB from 293T cells showing interactions between proNGF and sortilin and SorCS2.
The LifeAct sequence (RIEDL, J. et al., Nat Methods 5:605-607 (2008)) was cloned into the pEGFP-N1 backbone (Clontech) using the BglII and BamHI restriction sites. Trio constructs were described previously (FERRARO, F. et al., Mol Biol Cell 18:4813-4825 (2007)), human sortilin cDNA or human SorCS2 cDNA was subcloned into the pcDNA3.1 hygro expression vector (Invitrogen). […]

T1 sequence (P08138 29-427): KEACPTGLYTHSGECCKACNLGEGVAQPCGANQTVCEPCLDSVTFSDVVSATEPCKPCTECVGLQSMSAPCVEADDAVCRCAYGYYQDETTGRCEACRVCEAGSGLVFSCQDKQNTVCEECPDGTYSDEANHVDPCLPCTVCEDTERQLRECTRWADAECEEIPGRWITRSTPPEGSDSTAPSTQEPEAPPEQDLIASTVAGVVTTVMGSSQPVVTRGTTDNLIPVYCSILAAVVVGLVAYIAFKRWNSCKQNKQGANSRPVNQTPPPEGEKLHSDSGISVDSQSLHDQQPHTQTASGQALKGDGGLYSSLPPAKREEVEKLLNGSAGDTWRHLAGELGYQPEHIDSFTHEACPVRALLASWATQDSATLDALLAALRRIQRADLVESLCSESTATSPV
T1 sequence (Q96PQ0 70-1159 limits assumed): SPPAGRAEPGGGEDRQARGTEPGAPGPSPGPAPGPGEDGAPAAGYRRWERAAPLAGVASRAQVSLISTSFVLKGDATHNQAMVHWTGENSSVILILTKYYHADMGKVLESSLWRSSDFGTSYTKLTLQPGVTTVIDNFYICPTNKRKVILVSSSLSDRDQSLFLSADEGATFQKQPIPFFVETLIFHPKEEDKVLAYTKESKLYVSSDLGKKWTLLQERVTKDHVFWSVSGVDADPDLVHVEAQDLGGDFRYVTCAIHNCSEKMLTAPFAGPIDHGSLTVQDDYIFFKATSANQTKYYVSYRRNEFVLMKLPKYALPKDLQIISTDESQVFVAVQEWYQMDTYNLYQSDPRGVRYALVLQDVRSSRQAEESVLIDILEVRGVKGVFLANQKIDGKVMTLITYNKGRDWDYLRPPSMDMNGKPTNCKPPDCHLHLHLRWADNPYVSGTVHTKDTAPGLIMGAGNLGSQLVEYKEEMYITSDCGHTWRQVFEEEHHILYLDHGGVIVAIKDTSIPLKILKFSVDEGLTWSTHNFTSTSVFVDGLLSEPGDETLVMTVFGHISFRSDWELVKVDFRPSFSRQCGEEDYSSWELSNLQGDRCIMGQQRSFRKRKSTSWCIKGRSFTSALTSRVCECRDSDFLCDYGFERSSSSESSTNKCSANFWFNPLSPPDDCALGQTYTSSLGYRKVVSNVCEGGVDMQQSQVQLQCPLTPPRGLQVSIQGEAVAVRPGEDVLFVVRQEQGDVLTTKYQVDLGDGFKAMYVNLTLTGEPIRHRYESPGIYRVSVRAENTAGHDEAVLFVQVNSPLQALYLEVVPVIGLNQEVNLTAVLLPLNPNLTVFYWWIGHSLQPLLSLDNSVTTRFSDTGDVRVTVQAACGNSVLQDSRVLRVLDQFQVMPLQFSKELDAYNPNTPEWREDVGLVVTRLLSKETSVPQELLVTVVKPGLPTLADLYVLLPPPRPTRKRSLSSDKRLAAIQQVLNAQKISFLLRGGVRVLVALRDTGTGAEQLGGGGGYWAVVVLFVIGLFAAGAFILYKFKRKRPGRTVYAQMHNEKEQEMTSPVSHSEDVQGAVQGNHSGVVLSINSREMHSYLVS

Row | Molecule | interaction between p75NTR/SorCS2 and Trio (p75^NTR/SorCS2 and Trio) | growth cone collapse in cortical neurons [1] | interaction with sortilin (co-immunoprecipitation) (sortilin)
1 | proNGF: proneurotrophin precursor of nerve growth factor, produced in Sf9 cells and purified | markedly reduced the interaction | displayed growth cone collapse | co-immunoprecipitated with both sortilin and SorCS2
2 | B1 | markedly reduced the interaction |  | interact
